In US7888090B2, “Mutants of O6-alkylguanine-DNA alkyltransferase” (Ecole Polytechnique Federale de Lausanne, priority 2004, dated 2011):

Experiments:
[1] = Expression yield of soluble GST-AGT fusion protein; set-up: species or system E. coli; conditions: comparator not stated
In short: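 GST-AGT fusions expressed in E. coli BL21, induced with 0.5 mM IPTG for 3.5 h at 24 °C, and purified from the soluble fraction on glutathione sepharose. Soluble and insoluble fractions compared by SDS-PAGE. Yield taken from A280 relative to wild-type hAGT purified the same way.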

[2] = Activity assay with biotinylated O^6-benzylguanine (BG-Bt), Western blotting; format: biochemical; conditions: statement in words
In short: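 Purified mutant GST-AGT (0.2 μM) reacted with 1 μM biotinylated O^6-benzylguanine in 50 mM HEPES pH 7.2, 1 mM DTT at room temperature. Time-point aliquots quenched with O^6-benzylguanine in SDS buffer. Biotinylated protein detected by Western blot with neutravidin-peroxidase, band intensity quantified.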

[3] = Periplasmic expression / stability under oxidizing conditions; set-up: species or system E. coli
Protocol: The activities towards AGT substrates are measured after purification without addition of reducing agents such as dithiothreitol or beta-mercaptoethanol. Alternatively, the activities of mutant AGT and wild type human are compared after their export into cellular compartments with oxidising redox potential (e.g. the periplasm of E. coli due to their fusion to appropriate signal sequences. Activity towards AGT substrates under reducing and oxidising conditions is compared by performing the reactions in the presence or absence of reducing agents such as dithiothreitol or beta-mercaptoethanol.
The mutant AGT gene of Example 1 is amplified and cloned as described in Example 1 with the oligonucleotides SEQ ID NO:3, SEQ ID NO:10 and SEQ ID NO:4, SEQ ID NO:9 causing the further mutation Cys62Ala in the gene upon their incorporation by PCR. Protein expression, purification and determination of yield is carried out as described in Example 1. The mutant gene is PCR amplified with the primers SEQ ID NO:11, SEQ ID NO:12 that contain SfiI restriction sites to subclone the gene in fusion to the g3 protein of filamentous phage in the vector pAK100 (Krebber et al., J Immunol Methods 201:35-55, 1997). […] The supernatant is directly subjected to quantification of protein yield via SDS-PAGE and activity assays as described in Example 1.
Stability under oxidizing conditions: The mutant gene is PCR amplified with the primers SEQ ID NO:11 and SEQ ID NO:28 to subclone the gene into pAK100, as described in Example 2. […] To compare the reactivity of […] (Juillerat et al., Chem Biol 10:313-317, 2003) and the mutant, samples are incubated with 1 µM BG-Bt for 50 min, quenched with SDS-Laemmli buffer and analyzed by western blotting using neutravidin peroxidase conjugate (Pierce) or a monoclonal mouse anti-FLAG IgG antibody (M2, Sigma) and a secondary anti-mouse-IgG::HRP conjugate, and Renaissance reagent plus (NEN). […] The anti-FLAG IgG antibody is used to estimate the total amount of soluble AGT protein, whereas neutravidin quantifies the reactive portion of it. […]

DNA = DNA binding in vitro (co-purified DNA, UV spectroscopy); set-up: species or system E. coli
Protocol: The interaction with DNA is e.g. quantified by assessing the amount of copurified DNA from E. coli extracts under conditions of low salt and absence of DNase. This is compared between parallel purifications of fusion proteins (e.g. fusions to GST) of wild type (human) and mutant AGT by spectroscopic methods (ratio of absorbance at 260 and 280 nm). Alternatively the interaction of AGT with DNA is measured as the inhibition of AGT reactivity with BG-Cy3 (O^6-(4-aminomethyl-benzyl)-guanine coupled to Cy3) as substrate in the presence of DNA. This approach takes advantage of a marked increase of fluorescence of the Cy3 fluorophore upon reaction of BG-Cy3 with AGT. The reaction kinetics of AGT with a Cy3-labeled benzylguanine derivative is followed by fluorescence intensity measurements over several hours at various concentrations of salmon sperm DNA.
For comparing the DNA binding properties of the protein in vitro, the harvested cells are resuspended, and the GST fusion protein is purified following the same method but in a buffer containing 50 mM phosphate, 0.1 M NaCl, 1 mM DTT. In the dialysed samples, the amount of subsequently co-purified DNA is estimated by UV spectroscopy. Spectra are recorded using a Perkin Elmer Lambda 10. The content of DNA corresponds to the ratio of the extinctions at 280 and 260 nm. […]

B1: Cys62Ala, Lys125Ala, Ala127Thr, Arg128Ala, Asn157Gly, Ser159Glu, truncated after Gly182: particularly preferred hAGT mutant with the listed mutations (protein, UniProt P16455 1-207, looked up, variant C62A K125A A127T R128A N157G S159E del183-207)
Methylated-DNA--protein-cystei …: MDKDCEMKRTTLDSPLGKLELSGCEQGLHEIKLLGKGTSAADAVEVPAPAAVLGGPEPLMQATAWLNAYFHQPEAIEEFPVPALHHPVFQQESFTRQVLWKLLKVVKFGEVISYQQLAALAGNPAATAAVGGAMRGNPVPILIPCHRVVCSSGAVGGYEGGLAVKEWLLAHEGHRLGKPGLG
With B1 the “expression yield in E. coli” value [1] was “increased expression yield”, the “activity towards O^6-benzylguanine substrates” value [2] was “increased reactivity” and the sensitivity to oxidation [3] was “reduced sensitivity to oxidation”. For the same molecule, the “reduced DNA binding” value (DNA) was “reduced DNA binding”.
